Results published in patent US20190201491A1.
[ ]: non-standard residue; d: D form. Phe(4-Ac) = CC(=O)c1ccc(C[C@H](N)C(=O)O)cc1

B1: bFGF-21-Q108pAF-30KPEG-G170E (ligand)
chain: HPIPDSSPLLQFGGQVRQRYLYTDDAQETEAHLEIRADGTVVGAARQSPESLLELKALKPGVIQILGVKTSRFLCQGPDGKLYGSLHFDPKACSFRELLLEDGYNVY[Phe(4-Ac)](PEG 30 kDa)SETLGLPLRLPPQRSSNRDPAPRGPARFLPLPGLPAAPPDPPGILAPEPPDVGSSDPLSMVEPSYGRSPSYTS
B2: bFGF-21-Q108-30KPEG G170A (ligand)
chain: HPIPDSSPLLQFGGQVRQRYLYTDDAQETEAHLEIRADGTVVGAARQSPESLLELKALKPGVIQILGVKTSRFLCQGPDGKLYGSLHFDPKACSFRELLLEDGYNVY[Phe(4-Ac)](PEG 30 kDa)SETLGLPLRLPPQRSSNRDPAPRGPARFLPLPGLPAAPPDPPGILAPEPPDVGSSDPLSMVAPSYGRSPSYTS
B3: bFGF-21-Q108-30KPEG G170D (ligand)
chain: HPIPDSSPLLQFGGQVRQRYLYTDDAQETEAHLEIRADGTVVGAARQSPESLLELKALKPGVIQILGVKTSRFLCQGPDGKLYGSLHFDPKACSFRELLLEDGYNVY[Phe(4-Ac)](PEG 30 kDa)SETLGLPLRLPPQRSSNRDPAPRGPARFLPLPGLPAAPPDPPGILAPEPPDVGSSDPLSMVDPSYGRSPSYTS
B4: bFGF-21-G77-30KPEG (ligand)
chain: HPIPDSSPLLQFGGQVRQRYLYTDDAQETEAHLEIRADGTVVGAARQSPESLLELKALKPGVIQILGVKTSRFLCQ[Phe(4-Ac)](PEG 30 kDa)PDGKLYGSLHFDPKACSFRELLLEDGYNVYQSETLGLPLRLPPQRSSNRDPAPRGPARFLPLPGLPAAPPDPPGILAPEPPDVGSSDPLSMVEPSYGRSPSYTS
modifications: not fully specified; also: PEG: linear aminooxy-PEG
B5: bFGF-21-Q108-30KPEG (ligand)
chain: HPIPDSSPLLQFGGQVRQRYLYTDDAQETEAHLEIRADGTVVGAARQSPESLLELKALKPGVIQILGVKTSRFLCQGPDGKLYGSLHFDPKACSFRELLLEDGYNVY[Phe(4-Ac)](PEG 30 kDa)SETLGLPLRLPPQRSSNRDPAPRGPARFLPLPGLPAAPPDPPGILAPEPPDVGSSDPLSMVGPSYGRSPSYTS
B6: bFGF-21-Q108-30KPEG G170S (ligand)
chain: HPIPDSSPLLQFGGQVRQRYLYTDDAQETEAHLEIRADGTVVGAARQSPESLLELKALKPGVIQILGVKTSRFLCQGPDGKLYGSLHFDPKACSFRELLLEDGYNVY[Phe(4-Ac)](PEG 30 kDa)SETLGLPLRLPPQRSSNRDPAPRGPARFLPLPGLPAAPPDPPGILAPEPPDVGSSDPLSMVSPSYGRSPSYTS
B7: bFGF-21-K91-30KPEG (ligand)
chain: HPIPDSSPLLQFGGQVRQRYLYTDDAQETEAHLEIRADGTVVGAARQSPESLLELKALKPGVIQILGVKTSRFLCQGPDGKLYGSLHFDP[Phe(4-Ac)](PEG 30 kDa)ACSFRELLLEDGYNVYQSETLGLPLRLPPQRSSNRDPAPRGPARFLPLPGLPAAPPDPPGILAPEPPDVGSSDPLSMVEPSYGRSPSYTS
modifications: not fully specified; also: PEG: linear aminooxy-PEG
B8: bFGF-21-R131-30KPEG (ligand)
chain: HPIPDSSPLLQFGGQVRQRYLYTDDAQETEAHLEIRADGTVVGAARQSPESLLELKALKPGVIQILGVKTSRFLCQGPDGKLYGSLHFDPKACSFRELLLEDGYNVYQSETLGLPLRLPPQRSSNRDPAP[Phe(4-Ac)](PEG 30 kDa)GPARFLPLPGLPAAPPDPPGILAPEPPDVGSSDPLSMVEPSYGRSPSYTS
modifications: not fully specified; also: PEG: linear aminooxy-PEG

Target: beta Klotho and FGFR1c (Fibroblast Growth Factor Receptor isoform 1c) expressed on the cell surface of a proprietary stable cell line (HEK293)
Assay: cell-based or functional assay

Binder | Average Fold Loss Potency Relative to bFGF-21-Q108-30KPEG, Elk1 luciferase reporter assay [fold] | EC50 (ng/mL), STEADY-GLO Elk1 luciferase reporter assay [ng/mL] | Emax (%) relative to WT bFGF-21, Elk1 luciferase reporter assay [%] | Fold loss potency relative to WT bFGF21, Elk1 luciferase reporter assay [fold]
B1 | 3.7 | – | – | –
B2 | 1.7 | – | – | –
B3 | 8.7 | – | – | –
B4 | – | 347 | 50 | 9
B5 | 1 | 147 | 73 | 4
B6 | 0.8 | – | – | –
B7 | – | 537 | 57 | 14
B8 | – | 556 | 38 | 14
